What was measured:
[1] = biological target: recombinant mouse IL-2 (mouse) (UniProt P04351); assay: cell-based or functional assay
recombinant mouse CD25 [2] = biological target: T1, recombinant mouse CD25 (mouse, UniProt P01590 22-236, biotinylated in FIG. 1A (site not stated)); assay: BLI tandem cross-blocking: biotinylated mouse CD25 on SA sensor, 100 nM mouse IL-2, then antibody at 150 s
T1 construct: also called biotinylated mouse CD25
T1 sequence (looked up): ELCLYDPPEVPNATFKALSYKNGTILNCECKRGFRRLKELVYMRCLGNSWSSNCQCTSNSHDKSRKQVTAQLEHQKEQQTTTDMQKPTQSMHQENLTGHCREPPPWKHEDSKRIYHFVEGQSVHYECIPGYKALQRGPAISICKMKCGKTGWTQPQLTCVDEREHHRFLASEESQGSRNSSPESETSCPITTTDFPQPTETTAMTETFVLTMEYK

recombinant mouse CD25 [3] = biological target: T1, recombinant mouse CD25; assay: BLI Octet RED384, IgG on AHQ sensors, 100 nM antigen, 1:1 model
[4] = biological target: T2, recombinant mouse CD25 his tagged (mouse, UniProt P01590 22-236, limits assumed); assay: SPR Biacore 2000, antibody captured by anti-mouse antibody on CM-5 chip, recombinant mouse CD25 his tagged as analyte, bivalent analyte model
T2 construct: also called rmCD25 his tagged; mCD25; not shown: his tag
T2 sequence (looked up): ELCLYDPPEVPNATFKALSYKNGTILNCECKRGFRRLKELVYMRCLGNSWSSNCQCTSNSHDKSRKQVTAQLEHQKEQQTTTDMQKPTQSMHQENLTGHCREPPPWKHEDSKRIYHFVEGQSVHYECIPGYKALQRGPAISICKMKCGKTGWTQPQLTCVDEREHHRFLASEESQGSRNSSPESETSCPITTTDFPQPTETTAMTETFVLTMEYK

[5] = biological target: T3, human CD25 expressed on cells (Karpas 299, SU-DHL-1, SR-786, in vitro differentiated Treg cells, PBMC) (human, UniProt P01589 22-272); assay: flow cytometry titration on Karpas 299 cells, AF647 secondary antibody
T3 construct: also called CD25 expressing cells
T3 sequence: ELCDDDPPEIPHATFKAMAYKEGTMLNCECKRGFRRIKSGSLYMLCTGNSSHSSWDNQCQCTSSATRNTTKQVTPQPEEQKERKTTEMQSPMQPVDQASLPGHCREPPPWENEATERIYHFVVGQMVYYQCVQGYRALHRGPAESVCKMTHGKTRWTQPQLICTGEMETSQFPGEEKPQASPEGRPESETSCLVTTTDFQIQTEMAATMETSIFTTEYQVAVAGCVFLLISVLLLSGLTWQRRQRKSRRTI

[6] = biological target: T3, human CD25 expressed on cells (Karpas …); assay: as above; remark: listed apart in the source
[7] = biological target: T3, human CD25 expressed on cells (Karpas …); assay: as above; remark: listed apart in the source
[8] = biological target: T3, human CD25 expressed on cells (Karpas …); assay: flow cytometry titration on Karpas 299 cells, AF647 secondary antibody [Figure 68 continued]
[9] = biological target: T3, human CD25 expressed on cells (Karpas …); assay: as above; remark: listed apart in the source
[10] = biological target: T3, human CD25 expressed on cells (Karpas …); assay: flow cytometry titration on Karpas 299 cells, AF647 secondary antibody; remark: listed apart in the source
[11] = biological target: T3, human CD25 expressed on cells (Karpas …); assay: flow cytometry titration on Karpas 299 cells, AF647 secondary antibody [Figure 68 continued]; remark: listed apart in the source
[12] = biological target: T3, human CD25 expressed on cells (Karpas …); assay: as above; remark: listed apart in the source

## neutralizing anti-mouse IL-2 antibody, clone Jes6-1A12
[1]
  frequency of CD4 T cells both proliferating and producing Granzyme B after anti-CD3/anti-CD28 stimulation: < 1%

B1: recombinant mouse IL-2 (ligand, UniProt P04351 21-169, looked up)
chain: APTSSSTSSSTAEAQQQQQQQQQQQQHLEQLLMDLQELLSRMENYRNLKLPRMLTFKFYLPKQATELKDLQCLEDELGPLRHVLDLTQSKSFQLEDAENFISNIRVTVVKLKGSDNTFECQFDDESATVVDFLRRWIAFCQSIISTSPQ
Recombinant mouse CD25 [2]
  binding result: binds

B2: 7D4(mIgG2a), recombinant anti-mouse CD25 antibody with mouse IgG2a and kappa constant regions (antibody)
heavy: EVQLQQSGAALVKPGASVKMSCKASGYSFPDSWVTWVKQSHGKSLEWIGDIFPNSGATNFNEKFKGKATLTVDKSTSTAYMELSRLTSEDSAIYYCTRLDYGYWGQGVMVTVSSAKTTAPSVYPLAPVCGDTTGSSVTLGCLVKGYFPEPVTLTWNSGSLSSGVHTFPAVLQSDLYTLSSSVTVTSSTWPSQSITCNVAHPASSTKVDKKIEPRGPTIKPCPPCKCPAPNLLGGPSVFIFPPKIKDVLMISLSPIVTCVVVDVSEDDPDVQISWFVNNVEVHTAQTQTHREDYNSTLRVVSALPIQHQDWMSGKEFKCKVNNKDLPAPIERTISKPKGSVRAPQVYVLPPPEEEMTKKQVTLTCMVTDFMPEDIYVEWTNNGKTELNYKNTEPVLDSDGSYFMYSKLRVEKKNWVERNSYSCSVVHEGLHNHHTTKSFSRTPGK
light: DVVLTQTPPTLSATIGQSVSISCRSSQSLLHSNGNTYLNWLLQRPGQPPQLLIYLASRLESGVPNRFSGSGSGTDFTLKISGVEAEDLGVYYCVQSSHFPNTFGVGTKLEIKRADAAPTVSIFPPSSEQLTSGGASVVCFLNNFYPKDINVKWKIDGSERQNGVLNSWTDQDSKDSTYSMSSTLTLTKDEYERHNSYTCEATHKTSTSPIVKSFNRNEC
notes: also called 7D4m2a; a7D4 mIgG2a
Recombinant mouse CD25 [3]
  Kd: ~1 nM
[4]
  Kd: 2.6 nM

B3: 7D4(mIgG1), recombinant anti-mouse CD25 antibody with murine IgG1 and kappa constant regions (antibody)
heavy: EVQLQQSGAALVKPGASVKMSCKASGYSFPDSWVTWVKQSHGKSLEWIGDIFPNSGATNFNEKFKGKATLTVDKSTSTAYMELSRLTSEDSAIYYCTRLDYGYWGQGVMVTVSSAKTTPPSVYPLAPGSAAQTNSMVTLGCLVKGYFPEPVTVTWNSGSLSSGVHTFPAVLQSDLYTLSSSVTVPSSTWPSQTVTCNVAHPASSTKVDKKIVPRDCGCKPCICTVPEVSSVFIFPPKPKDVLMISLTPKVTCVVVDISKDDPEVQFSWFVDDVEVHTAQTKPREEQINSTERSVSELPILHQDWLNGKEFKCRVNSAAFPAPIEKTISKTKGRPKAPQVYTIPPPKEQMAKDKVSLTCMITNEFPEDITVEWQWNGQPAENYKNTQPIMDTDGSYFVYSKLNVQKSNWEAGNTFTCSVLHEGLHNHHTEKSLSHSPGK
light: DVVLTQTPPTLSATIGQSVSISCRSSQSLLHSNGNTYLNWLLQRPGQPPQLLIYLASRLESGVPNRFSGSGSGTDFTLKISGVEAEDLGVYYCVQSSHFPNTFGVGTKLEIKRADAAPTVSIFPPSSEQLTSGGASVVCFLNNFYPKDINVKWKIDGSERQNGVLNSWTDQDSKDSTYSMSSTLTLTKDEYERHNSYTCEATHKTSTSPIVKSFNRNEC
notes: also called a7D4(mIgG1); 7D4 (mlg1)
Recombinant mouse CD25 [3]
  Kd: ~1 nM

B4: 2E4, anti-mouse CD25 antibody from the 2E4 hybridoma (antibody, V domains shown)
VH: EVQLVESGGGLVQPGRSLKLSCAASGFTFSDYGMAWVRQAPTKGLEWVASITNGGLNTYYRDSVKGRFTISRDNAKCTLYLQMDSLRSEDTATYYCATGGFSFWGQGTLVTVSS
VL: DIVMTQSPTSMSISVGDRVTMNCKASQNVDSNVDWYQQKTGQSPKLLIYKASNRYTGVPDRFTGSGSGTDFTFTIRNMQAEDLAVYYCMQSNSYPLTFGSGTKLEIK
notes: also called 2E4 (mlg1)
[4]
  Kd: 114 nM

B5: Antibody 12 (antibody, V domains shown)
VH: QVQLQESGPGLVKPSETLSLTCTVSGFSLTSYGIQWIRQPPGKGLEWIGVIWAGGSTNYNSALMSRVTISKDNSKNQFSLKLSSVTAADTAVYYCARAYGYDGSWLAYWGQGTLVTVSS
VL: DIQMTQSPSSLSASVGDRVTITCRASSSVSYMHWYQQKPGKAPKPLIFATSNLASGVPSRFSGSGSGTDYTLTISSLQPEDFATYYCQQWSSNPPTFGGGTKLEIK
notes: also called Ab12
[5]
  EC50 (read off the curve): ~0.3 µg/mL

B6: Antibody 13 (antibody, V domains shown)
VH: QVQLQESGPGLVKPSETLSLTCTVSGFSLTSYGIQWIRQPPGKGLEWIGVIWAGGSTNYNSALMSRVTISKDNSKNQFSLKLSSVTAADTAVYYCARAYGYDGSWLAYWGQGTLVTVSS
VL: QIQLTQSPSSLSASVGDRVTITCRASSSVSYMHWYQQKPGKSPKPLIFATSNLASGVPSRFSGSGSGTDYTLTISSLQPEDFATYYCQQWSSNPPTFGGGTKLEIK
notes: also called Ab13
[6]
  EC50 (read off the curve): ~0.2 µg/mL

B7: Antibody 15 (antibody, V domains shown)
VH: QVQLQESGPGLVKPSETLSLTCTVSGFSLTSYGIQWVRQPPGKGLEWIGVIWAGGSTNYNSALMSRVTISKDNSKSQFSLKLSSVTAADTAVYYCARAYGYDGSWLAYWGQGTLVTVSS
VL: QIVLTQSPATLSLSPGERATLSCRASSSVSYMHWYQQKPGQAPRPLIFATSNLASGIPARFSGSGSGTDYTLTISSLEPEDFAVYYCQQWSSNPPTFGGGTKLEIK
notes: also called Ab15
[7]
  EC50 (read off the curve): ~0.3 µg/mL

B8: Antibody 17 (antibody, V domains shown)
VH: QVQLQESGPGLVKPSETLSLTCTVSGFSLTSYGIQWVRQPPGKGLEWIGVIWAGGSTNYNSALMSRVTISKDNSKSQFSLKLSSVTAADTAVYYCARAYGYDGSWLAYWGQGTLVTVSS
VL: QIQLTQSPSSLSASVGDRVTITCRASSSVSYMHWYQQKPGKSPKPLIFATSNLASGVPSRFSGSGSGTDYTLTISSLQPEDFATYYCQQWSSNPPTFGGGTKLEIK
notes: also called Ab17
[8]
  EC50 (read off the curve): ~0.2 µg/mL

B9: Antibody 16 (antibody, V domains shown)
VH: QVQLQESGPGLVKPSETLSLTCTVSGFSLTSYGIQWVRQPPGKGLEWIGVIWAGGSTNYNSALMSRVTISKDNSKSQFSLKLSSVTAADTAVYYCARAYGYDGSWLAYWGQGTLVTVSS
VL: DIQMTQSPSSLSASVGDRVTITCRASSSVSYMHWYQQKPGKAPKPLIFATSNLASGVPSRFSGSGSGTDYTLTISSLQPEDFATYYCQQWSSNPPTFGGGTKLEIK
notes: also called Ab16
[9]
  EC50 (read off the curve): ~0.2 µg/mL

B10: Antibody 14 (antibody, V domains shown)
VH: QVQLQESGPGLVKPSETLSLTCTVSGFSLTSYGIQWVRQPPGKGLEWIGVIWAGGSTNYNSALMSRVTISKDNSKSQFSLKLSSVTAADTAVYYCARAYGYDGSWLAYWGQGTLVTVSS
VL: EIVLTQSPATLSLSPGERATLSCRASSSVSYMHWYQQKPGQAPRPLIFATSNLASGIPARFSGSGSGTDFTLTISSLEPEDFAVYYCQQWSSNPPTFGGGTKLEIK
notes: also called AB14
[10]
  EC50 (read off the curve): ~0.3 µg/mL

B11: Antibody 18 (antibody, V domains shown)
VH: QVQLVESGGGVVQPGGSLRLSCAVSGFSLTSYGIQWVRQAPGKGLEWVSVIWAGGSTNYNSALMSRFTISKDNSKSTLYLQMNSLRAEDTAVYYCARAYGYDGSWLAYWGQGTLVTVSS
VL: EIVLTQSPATLSLSPGERATLSCRASSSVSYMHWYQQKPGQAPRPLIFATSNLASGIPARFSGSGSGTDFTLTISSLEPEDFAVYYCQQWSSNPPTFGGGTKLEIK
notes: also called Ab18
[11]
  EC50 (read off the curve): ~0.3 µg/mL

B12: Antibody 19 (antibody, V domains shown)
VH: QVQLVESGGGVVQPGGSLRLSCAVSGFSLTSYGIQWVRQAPGKGLEWVSVIWAGGSTNYNSALMSRFTISKDNSKSTLYLQMNSLRAEDTAVYYCARAYGYDGSWLAYWGQGTLVTVSS
VL: QIVLTQSPATLSLSPGERATLSCRASSSVSYMHWYQQKPGQAPRPLIFATSNLASGIPARFSGSGSGTDYTLTISSLEPEDFAVYYCQQWSSNPPTFGGGTKLEIK
notes: also called Ab19; Antibodyl9
[12]
  EC50 (read off the curve): ~0.3 µg/mL

Reference: patent publication US20200010554A1 (TUSK THERAPEUTICS, published 2020)
